For one molecule, Kd and koff results are on record in publication PMC5770421 (2018).

What is called Kd is a measure of binding affinity in units of concentration. Read a high Kd as a looser complex. For orientation: koff means the rate constant with which the complex falls apart. Read a low koff as a long-lived complex.

Common to all, as to assay: BLI
(Biolayer interferometry detects binding as a change in optical thickness at a sensor tip.)

Assay [1] deals with T1, H4K8ac (Saccharomyces cerevisiae, acetyl-Lys8 (mature numbering; K9 in UniProt); biotinylated. Limits 1-21 from the pull-down methods; the BLItz peptide is 1-20. Peptide species not given; a commercial vertebrate peptide would have …).
The target of assay [2] is T2, H4K12ac (Saccharomyces cerevisiae, acetyl-Lys12 (mature numbering; K13 in UniProt); biotinylated. Limits 1-21 from the pull-down methods; the BLItz peptide is 1-20. Peptide species not given; a commercial vertebrate peptide would …).
Assay [3] concerns the target T3, H4K5ac (Saccharomyces cerevisiae, acetyl-Lys5 (mature numbering; K6 in UniProt); biotinylated. Limits 1-21 from the pull-down methods; the BLItz peptide is 1-20. Peptide species not given; a commercial vertebrate peptide would have …).
For assay [4], the target named is T1, H4K8ac. This is another data set of the same source.
The target in assay [5] is T2, H4K12ac. This is another data set of the same source.
The target of assay [6] is T3, H4K5ac. This is another data set of the same source.

T2 sequence (main, as listed by the source): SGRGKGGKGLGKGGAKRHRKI

B1: Dot1p (disruptor of telomeric silencing-1), MBP tag removed (enzyme)
chain: MGGQESISNNNSDSFIMSSPNLDSQESSISPIDEKKGTDMQTKSLSSYSKGTLLSKQVQNLLEEANKYDPIYGSSLPRGFLRDRNTKGKDNGLVPLVEKVIPPIHKKTNNRNTRKKSSTTTKKDVKKPKAAKVKGKNGRTNHKHTPISKQEIDTAREKKPLKKGRANKKNDRDSPSSTFVDWNGPCLRLQYPLFDIEYLRSHEIYSGTPIQSISLRTNSPQPTSLTSDNDTSSVTTAKLQSILFSNYMEEYKVDFKRSTAIYNPMSEIGKLIEYSCLVFLPSPYAEQLKETILPDLNASFDNSDTKGFVNAINLYNKMIREIPRQRIIDHLETIDKIPRSFIHDFLHIVYTRSIHPQANKLKHYKAFSNYVYGELLPNFLSDVYQQCQLKKGDTFMDLGSGVGNCVVQAALECGCALSFGCEIMDDASDLTILQYEELKKRCKLYGMRLNNVEFSLKKSFVDNNRVAELIPQCDVILVNNFLFDEDLNKKVEKILQTAKVGCKIISLKSLRSLTYQINFYNVENIFNRLKVQRYDLKEDSVSWTHSGGEYYISTVMEDVDESLFSPAARGRRNRGTPVKYTR
Take B1: the results for the Kd in assay [1], in assay [2] and in assay [3] were 19.6 nM, 23.3 nM and 20.1 nM, respectively. Further, the values for the dissociation rate constant (koff) in assay [4], in assay [5] and in assay [6] were 0.00237 s⁻¹, 0.00302 s⁻¹ and 0.00317 s⁻¹, respectively.
